Measured values from doi:10.1101/2021.11.05.467508v1.

B1: ΔN1 (Oryza sativa Indica Group) (protein)
chain: KHLVVFTGAGISTSSGIPDFRGPKGVWTLQRSGKGVPGASLPFHRAVPTLTHMALVELEKTGRLKFVISQNVDSLHLRSGLPREKLAELHGNSFKEICPSCKKEYLRDFEIETIGLKDTPRRCSDKNCGARLKDTVLDWEDALPPEEMDAAKEQCQTADLVLCLGTSLQITPACNMPLLSLKNGGRVAIVNLQATPKDKKASLVIHGLVDKVIAGVMYMMNLRIPPYIRTDFVQISLRNSVKKKCVRWTLRVTSIHGLRAPLPFLRSVEVSFPERPDMKPVVLKEQPFSLQRETSMNRPFVMLLTFNFSDGCGCSSSSIEWPVDFLKQKDSFVRDRSLVLQELQHAAEHRSRAGQHAILEREGVPRAETSIHALVTNIVRYDTEDSKAAVPMATWMNSNGSLSKRHMDAIGCNPASSKKQKLVATRHRRKGLNPATQKV
B2: OsSRT1_cc (CC) (Oryza sativa Indica Group) (protein)
chain: KHLVVFTGAGISTSSGIPDFRGPKGVWTLQRSGKGVPGASLPFHRAVPTLTHMALVELEKTGRLKFVISQNVDSLHLRSGLPREKLAELHGNSFKEICPSCKKEYLRDFEIETIGLKDTPRRCSDKNCGARLKDTVLDWEDALPPEEMDAAKEQCQTADLVLCLGTSLQITPACNMPLLSLKNGGRVAIVNLQATPKDKKASLVIHGLVDK
B3: ΔC1 (Oryza sativa Indica Group) (protein)
chain: MSLGYAEKLSYREDVGNVGMPEIFDSPELLHKKIEELAVMVRESKHLVVFTGAGISTSSGIPDFRGPKGVWTLQRSGKGVPGASLPFHRAVPTLTHMALVELEKTGRLKFVISQNVDSLHLRSGLPREKLAELHGNSFKEICPSCKKEYLRDFEIETIGLKDTPRRCSDKNCGARLKDTVLDWEDALPPEEMDAAKEQCQTADLVLCLGTSLQITPACNMPLLSLKNGGRVAIVNLQATPKDKKASLVIHGLVDK

Substrate: NC(=O)c1ccc[n+]([C@@H]2O[C@H](COP(=O)(O)OP(=O)(O)OC[C@H]3O[C@@H](n4cnc5c(N)ncnc54)[C@H](O)[C@@H]3O)[C@@H](O)[C@H]2O)c1
Assay: dot blot saturation kinetics, Michaelis-Menten fit
Assay type: biochemical, Oryza sativa
Settings: H3K9Ac of histone H3 (constant), 0-600 μM NAD+, pH 7.5, 37 °C

Row | Protein | Km | kcat
1 | B1 | 175 ± 27 µM | 0.0617 ± 0.00367 s⁻¹
2 | B2 | 256 ± 21 µM | 0.03432 ± 0.00127 s⁻¹
3 | B3 | 299 ± 43 µM | 0.02 ± 0.0014 s⁻¹
